# Target: T1, HLA-DRB1*11:01 (human, UniProt P01911 30-227; P01903 26-216)
# T1 construct: whole, on cells; Class II molecule on irradiated, partially HLA-matched PHA-blasts; Only the DRB1 allele is printed; also called HLA-DR11
# Test: restriction testing: IFN-γ ELISpot of CSTs with partially HLA-matched PHA-blasts pulsed with peptide (indirect read-out)
binder,measurement,value
LRGHLRIAGHHLGRC (also called LRGHLRIAGHHLGRC) [Membrane peptide 37 (AA 145-160)],binding result,binds

# Source: US20220160767A1 (CHILDREN S NATIONAL MEDICAL CENTER, published 2022)
